The target in the assay is TBK1 (UniProt Q9UHD2). The experiment in a line: co-immunoprecipitation, immunoblot. The settings on record: reference: wild-type IRF3 + TBK1 + BLK; sites Y107. For orientation: A western blot detects proteins with antibodies after separation by electrophoresis.

Consider “IRF3 (from UniProt Q14653) IRF3(Y107F) + TBK1 + BLK”, for which the “binding against the reference” value was “weaker”.

The record behind these values is publication PMC10621992.
